“And” between values parts separate entries of the source, which are not always exact repeats. Equal values may be shown once. Read-outs that look alike come from different tables or passages of the source. Bridges are numbered along the chain shown (N, C = ends). Roman numbers before positions name the chains, in order. Where no end group is shown, it is not given here. [ ]: non-standard residue; d: D form. Phe(4-NH2) = Nc1ccc(C[C@H](N)C(=O)O)cc1
Assays:
human insulin receptor [1] = target: T1, human insulin receptor (human, UniProt P06213 28-1382); experiment: competition with 125I-insulin, receptor membranes, SPA
T1 construct: whole, on cells

human insulin receptor [2] = target: T1, human insulin receptor; experiment: as above; remark: listed apart in the source
human IGF-1 receptor [3] = target: T2, human IGF-1 receptor (human, UniProt P08069 31-1367); experiment: cell-based or functional assay
human IGF-1 receptor [4] = target: T2, human IGF-1 receptor; experiment: cell-based or functional assay; remark: listed apart in the source
human IGF-1 receptor [5] = target: T2, human IGF-1 receptor; experiment: competition with 125I-IGF-1, receptor membranes, SPA
human insulin receptor [6] = target: T1, human insulin receptor; experiment: cell-based or functional assay
human IGF-1 receptor [7] = target: T2, human IGF-1 receptor; experiment: cell-based or functional assay; remark: listed apart in the source
human insulin receptor [8] = target: T1, human insulin receptor; experiment: competition with 125I-insulin, receptor membranes, SPA; remark: listed apart in the source
human insulin receptor [9] = target: T1, human insulin receptor; experiment: as above; remark: listed apart in the source

B1: IGF1(Y^B16L^B17) (ligand)
chain 1: GIVDECCFRSCDLRRLEMYCA
chain 2: GPETLCGAELVDALYLVCGDRGFYFNKPT
notes: Two chain heteroduplex; may be the same molecule as m22; also called IGF1 (Y^B16L^B17) analog; IGF1 A:B(Y^B16L^B17)
IC50 (human insulin receptor [1]): 0.51 nM

B2: IGF-1 A:B (ligand)
chain 1: GIVDECCFRSCDLRRLEMYCA-NH2
chain 2: GPETLCGAELVDALQFVCGDRGFYFNKPT-NH2
modifications: disulfide I:6-I:11, I:20-II:18, I:7-II:6
notes: also called IGF-1 A and B chain heteroduplex
% insulin (in test) (human insulin receptor [2]): 5.8% | % native insulin activity (0.6 nM) (human insulin receptor [2]): 5.8% | IC50 (human insulin receptor [2]): 10.4 nM

B3: MIU-68: B0, B22-PEG10K di-PEGylated B^1(H5,Y16,L17, K22)25-C^1(K8)-A^1(N18,21) (ligand)
chain: {PEG 10 kDa}-GPEHLCGAELVDALYLVCGDK(PEG 10 kDa)GFYGYGSSSRKAPQTGIVDECCFRSCDLRRLENYCN
modifications: disulfide 18-56, 42-47, 6-43
% Insulin Activity (in vitro; assay not stated) (human IGF-1 receptor [3]): < 0.1%

B4: IGF-1 A:B (H5D10Y16L17) DPI (ligand)
chain 1: GIVDECCFRSCDLRRLEMYCA-NH2
chain 2: GPEHLCGADLVDALYLVCGDRGFY-NH2
modifications: disulfide I:6-I:11, I:20-II:18, I:7-II:6
% IGF, total phosphorylation (human IGF-1 receptor [4]): 7.1% | % IGF-1 (in test) (human IGF-1 receptor [5]): 11.2% | % native IGF-1 activity (0.55 nM) (human IGF-1 receptor [5]): 11.8% | IC50 (human IGF-1 receptor [5]): 4.66 nM | % insulin (in test) (human insulin receptor [2]): 479% | IC50 (human insulin receptor [2]): 0.16 nM

B5: IGF-1 A (H8 A9 N21):B(H5D10Y16L17 A22) DPI A-COOH (ligand)
chain 1: GIVDECCHASCDLRRLEMYCN
chain 2: GPEHLCGADLVDALYLVCGDAGFY
% IGF, total phosphorylation (human IGF-1 receptor [4]): 7.7% | % IGF-1 (in test) (human IGF-1 receptor [5]): 2.3% | % native IGF-1 activity (0.55 nM) (human IGF-1 receptor [5]): 2.4% | IC50 (human IGF-1 receptor [5]): 22.8 nM | IC50 (human insulin receptor [2]): 0.12 nM

B6: IGF-1 A:B (E10Y16L17) DPI (ligand)
chain 1: GIVDECCFRSCDLRRLEMYCA-NH2
chain 2: GPETLCGAELVDALYLVCGDRGFY-NH2
modifications: disulfide I:6-I:11, I:20-II:18, I:7-II:6
% IGF-1 (in test) (human IGF-1 receptor [5]): 3.3% | % native IGF-1 activity (0.55 nM) (human IGF-1 receptor [5]): 2.4% | IC50 (human IGF-1 receptor [5]): 22.9 nM

B7: IGF-1 A:B(D10Y16L17) DPI A-COOH (ligand)
chain 1: GIVDECCFRSCDLRRLEMYCA-OH
chain 2: GPETLCGADLVDALYLVCGDRGFY-NH2
modifications: disulfide I:6-I:11, I:20-II:18, I:7-II:6
% IGF, total phosphorylation (human IGF-1 receptor [4]): 112% | % Insulin, total phosphorylation (human insulin receptor [6]): 1580% | % IGF-1 (in test) (human IGF-1 receptor [5]): 7.7% | % native IGF-1 activity (0.55 nM) (human IGF-1 receptor [5]): 8.1% | IC50 (human IGF-1 receptor [5]): 6.79 nM | IC50 (human insulin receptor [2]): 0.2 nM and 0.42 nM and 0.26 nM

B8: IGF-1 A (H8 A9 N21):B(H5D10Y16L17) DPI A-COOH (ligand)
chain 1: GIVDECCHASCDLRRLEMYCN-OH
chain 2: GPEHLCGADLVDALYLVCGDRGFY-NH2
modifications: disulfide I:6-I:11, I:20-II:18, I:7-II:6
% IGF, total phosphorylation (human IGF-1 receptor [4]): 181% | % IGF-1 (in test) (human IGF-1 receptor [5]): 12.9% | % native IGF-1 activity (0.55 nM) (human IGF-1 receptor [5]): 13.6% | IC50 (human IGF-1 receptor [5]): 4.03 nM | IC50 (human insulin receptor [2]): 0.05 nM and 0.09 nM

B9: IGF-1 A:In (1-17)-IGF-1 B (18-30) (ligand)
chain 1: GIVDECCFRSCDLRRLEMYCA-NH2
chain 2: FVNQHLCGSHLVEALYLVCGDRGFYFNKPT-NH2
modifications: disulfide I:6-I:11, I:20-II:19, I:7-II:7
% IGF-1 (in test) (human IGF-1 receptor [5]): 0.9% | % native IGF-1 activity (0.55 nM) (human IGF-1 receptor [5]): 0.9% | IC50 (human IGF-1 receptor [5]): 62.5 nM | IC50 (human insulin receptor [2]): 2.77 nM and 2.67 nM and 2.48 nM

B10: IGF-1 A:In B(1-5)-IGF-1 B(YL)(6-30) (ligand)
chain 1: GIVDECCFRSCDLRRLEMYCA
chain 2: FVNQHLCGAELVDALYLVCGDRGFYFNKPT
modifications: not fully specified (bridges); cysteine pairing not given here; also: C-terminal amide, chain not given here
% IGF-1 (in test) (human IGF-1 receptor [5]): 3.6% | % native IGF-1 activity (0.55 nM) (human IGF-1 receptor [5]): 2% | IC50 (human IGF-1 receptor [5]): 27.5 nM

B11: DP22: CTP-E5R-B chain-CTP(K)-A Chain (ligand)
chain: MGSSSSKAPPPSLPSPSRLPGPSDTPILPQEEEEERGPEHLCGAHLVDALYLVCGDRGFYSSSSRAPPPSLPSPSRLPGPSDTPILPQKGIVDECCHRSCDLRRLENYCN
EC50, phosphorylation (FIG. 18C) (human IGF-1 receptor [7]): 83.1 nM

B12: MIU-67: B0, C8-PEG10K di-PEGylated B^1(H5,Y16,L17)25-C^1(K8)-A^1(N18,21) (ligand)
chain: {PEG 10 kDa}-GPEHLCGAELVDALYLVCGDRGFYGYGSSSRK(PEG 10 kDa)APQTGIVDECCFRSCDLRRLENYCN
modifications: disulfide 18-56, 42-47, 6-43
% Insulin Activity (in vitro; assay not stated) (human IGF-1 receptor [3]): < 0.1%

B13: IGF-2 AB(YL) (ligand)
chain 1: not shown
chain 2: AYRPSETLCGGELVDTLYLVCGDRGFYFSRPA
modifications: C-terminal amide
IC50 (human insulin receptor [2]): 6.81 nM

B14: DP20 Lys C (two chain form of DP20) (ligand)
chain 1: GPEHLCGAHLVDALYLVCGDRGFYSSSSRAPPPSLPSPSRLPGPSDTPILPQK
chain 2: GIVDECCHRSCDLRRLENYCN
EC50, phosphorylation (FIG. 18C) (human IGF-1 receptor [7]): 8.23 nM

B15: DP20: GE5K-B chain-CTP(K)-A Chain (ligand)
chain: GEEEEEKGPEHLCGAHLVDALYLVCGDRGFYSSSSRAPPPSLPSPSRLPGPSDTPILPQKGIVDECCHRSCDLRRLENYCN
EC50, phosphorylation (FIG. 18C) (human IGF-1 receptor [7]): 316 nM

B16: DP22LysC (ligand)
chain 1: APPPSLPSPSRLPGPSDTPILPQEEEEERGPEHLCGAHLVDALYLVCGDRGFYSSSSRAPPPSLPSPSRLPGPSDTPILPQK
chain 2: GIVDECCHRSCDLRRLENYCN
EC50, phosphorylation (FIG. 18C) (human IGF-1 receptor [7]): 14.8 nM

B17: MIU-57: B1-PEG20K B^1(H5,Y16,L17)25-C^1-A^1(N18,21) (ligand)
chain: {PEG 20 kDa}-GPEHLCGAELVDALYLVCGDRGFYGYGSSSRRAPQTGIVDECCFRSCDLRRLENYCN
modifications: disulfide 18-56, 42-47, 6-43
% Insulin Activity (in vitro; assay not stated) (human IGF-1 receptor [3]): 1.2%

B18: IGF-1 A:B(E10 Y16L17)-E31E32 B-COOH (ligand)
chain 1: GIVDECCFRSCDLRRLEMYCA-NH2
chain 2: GPETLCGAELVDALYLVCGDRGFYFNKPTEE-OH
modifications: disulfide I:6-I:11, I:20-II:18, I:7-II:6
% IGF-1 (in test) (human IGF-1 receptor [5]): 3% | % native IGF-1 activity (0.55 nM) (human IGF-1 receptor [5]): 3.1% | IC50 (human IGF-1 receptor [5]): 17.5 nM

B19: IGF1(Y^B16L^B17)(p-NH2-F)^A19amide (ligand)
chain 1: GIVDECCFRSCDLRRLEM[Phe(4-NH2)]CA
chain 2: GPETLCGAELVDALYLVCGDRGFYFNKPT
modifications: disulfide I:6-I:11, I:20-II:18, I:7-II:6; not fully specified (C-terminus); also: amide in name, site not given here
notes: also called IGF1 A:B(Y^B16L^B17)(p-NH2-F)^A19amide; IGF1 (Y^B16L^B17) A(p-NH2-F)^19
IC50 (human insulin receptor [8]): 1.08 nM

B20: MIU-69: B0, A14-PEG10K di-PEGylated B^1(H5,Y16,L17)25-C^1(K8)-A^1(K14, N18,21) (ligand)
chain: {PEG 10 kDa}-GPEHLCGAELVDALYLVCGDRGFYGYGSSSRKAPQTGIVDECCFRSCDLK(PEG 10 kDa)RLENYCN
modifications: disulfide 18-56, 42-47, 6-43
% Insulin Activity (in vitro; assay not stated) (human IGF-1 receptor [3]): < 0.1%

B21: IGF-1 A:B (H5D10Y16L17) (S=O)DPI (ligand)
chain 1: GIVDECCFRSCDLRRLEMYCA-NH2
chain 2: GPEHLCGADLVDALYLVCGDRGFY-NH2
modifications: disulfide I:6-I:11, I:20-II:18, I:7-II:6; also: (S=O), residue not given here
notes: the only Met stands at A18
% insulin (in test) (human insulin receptor [2]): 316% | IC50 (human insulin receptor [2]): 0.25 nM

B22: IGF1(Y^B16L^B17)(AlaPro)^A-1,0 (ligand)
chain 1: APGIVDECCFRSCDLRRLEMYCA
chain 2: GPETLCGAELVDALYLVCGDRGFYFNKPT
IC50 (human insulin receptor [9]): 1.93 nM

B23: MIU-35: B^1(H5, H10, Y16, L17)25-C^1-A^1 (H8, N18, N21) (ligand)
chain: GPEHLCGAHLVDALYLVCGDRGFYGYGSSSRRAPQTGIVDECCHRSCDLRRLENYCN
% Insulin Activity (in vitro; assay not stated) (human IGF-1 receptor [3]): 3.2%

B24: MIU-58: B1-PEG20K-B1- Dimer (ligand)
chain: {PEG 20 kDa}-GPEHLCGAELVDALYLVCGDRGFYGYGSSSRRAPQTGIVDECCFRSCDLRRLENYCN
modifications: disulfide 18-56, 42-47, 6-43; also: dimer: two chains linked head to head via 20 kDa PEG
% Insulin Activity (in vitro; assay not stated) (human IGF-1 receptor [3]): 2.6%

B25: IGF-1 A:B(E10Y16L17) (ligand)
chain 1: GIVDECCFRSCDLRRLEMYCA
chain 2: GPETLCGAELVDALYLVCGDRGFYFNKPT
modifications: disulfide I:6-I:11, I:20-II:18, I:7-II:6; not fully specified (C-terminus)
% IGF, total phosphorylation (human IGF-1 receptor [4]): 13% | % Insulin, total phosphorylation (human insulin receptor [6]): 49.2% | IC50 (human IGF-1 receptor [5]): 7.85 nM and 12.2 nM | IC50 (human insulin receptor [2]): 0.66 nM and 0.51 nM

B26: IGF-1 A:IGF-1 B(1-8)-In (9-17)-IGF-1 B(18-30) (ligand)
chain 1: GIVDECCFRSCDLRRLEMYCA-NH2
chain 2: GPETLCGSHLVEALYLVCGDRGFYFNKPT-NH2
modifications: disulfide I:6-I:11, I:20-II:18, I:7-II:6
% IGF-1 (in test) (human IGF-1 receptor [5]): 0.3% | % native IGF-1 activity (0.55 nM) (human IGF-1 receptor [5]): 0.4% | IC50 (human IGF-1 receptor [5]): 131 nM | % insulin (in test) (human insulin receptor [2]): 19.1% | % native insulin activity (0.6 nM) (human insulin receptor [2]): 37.7% | IC50 (human insulin receptor [2]): 1.59 nM
